In patent US20250340623A1 (AC IMMUNE, published 2025):

B1: ACI-7088-4301E12-Ab2 (antibody, V domains shown)
VH: DVQLQESGPGLVKPSQSLSLTCSVTGYSITSGYYWNWIRQFPGNKLEWMGYISDDGSKNYNPSLKNRISITRDTSKNQLFMKLNSVTTEDTATYYCARGDSRLGQGTLVTVSA
VL: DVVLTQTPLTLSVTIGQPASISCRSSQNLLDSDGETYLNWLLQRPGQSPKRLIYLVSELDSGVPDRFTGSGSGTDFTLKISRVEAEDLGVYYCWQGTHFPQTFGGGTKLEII
notes: mouse hybridoma mAb; VH/VL only; also called 4301E12B9
B2: ACI-8033-6403E11-Ab2 (antibody, V domains shown)
VH: DVQLQESGPGLVKPSQSLSLTCSVTGYSITSAYYWNWIRQFPGNKLEWMGYISYDGSNNYIPSLKNRISISRDTSKNQFFLKLNSVTTEDTATYYCIRGDVNWGQGTTLTVSS
VL: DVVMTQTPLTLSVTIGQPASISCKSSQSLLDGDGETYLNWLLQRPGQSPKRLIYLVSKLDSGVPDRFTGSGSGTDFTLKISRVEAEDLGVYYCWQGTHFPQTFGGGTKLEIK
notes: mouse hybridoma mAb; VH/VL only; also called 6403E11B4
B3: ACI-8033-6402E10-Ab1 (antibody, V domains shown)
VH: DVQLQESGPGLVKPVQSLSLTCSVTGYSITSGYYWNWIRQFPGNKLEWMGYISSDGSNNYNPSLKNRISISRDTSKNQFFLKLDSVTTEDTATYYCVRADNYWGQGTTLTVSS
VL: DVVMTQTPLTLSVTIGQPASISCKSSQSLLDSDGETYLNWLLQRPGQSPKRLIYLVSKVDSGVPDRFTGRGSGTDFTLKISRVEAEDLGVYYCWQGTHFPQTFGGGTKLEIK
notes: mouse hybridoma mAb; VH/VL only; also called 6402E10B3
B4: ACI-7089-4418C5-Ab1 (antibody, V domains shown)
VH: DGQLQESGPGLVKPSQSLSLTCSVTGYSITSGYYWNWIRQFPGNKLEWMGYINYDGSNNYNPSLKNRISITRDTSKNQFFLKFNFVTTEDTATYYCVRGDVYWGQGTTLTVSS
VL: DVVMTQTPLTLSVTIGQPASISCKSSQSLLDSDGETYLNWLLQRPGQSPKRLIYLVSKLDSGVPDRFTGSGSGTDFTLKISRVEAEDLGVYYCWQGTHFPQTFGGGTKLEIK
notes: mouse hybridoma mAb; VH/VL only; also called 4418C5G1
B5: ACI-7079-3108C10-Ab2 (antibody, V domains shown)
VH: ELQLVESGGGLVRPGGSLKLSCATSGFTFRNYAMSWVRQTPAKRLEWVATISDGGTYTFYSDNVKGRFTISRDNVKNTLYLQMSHLKSEDTAMYYCSRAGSGHWGQGTTLTVSS
VL: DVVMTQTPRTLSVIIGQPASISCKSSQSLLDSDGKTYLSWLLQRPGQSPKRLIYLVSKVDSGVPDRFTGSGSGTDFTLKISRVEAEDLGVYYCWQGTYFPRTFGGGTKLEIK
notes: mouse hybridoma mAb; VH/VL only; also called 3108C10G6
B6: ACI-7079-2601B6-Ab1 (antibody, V domains shown)
VH: EIQLQQSGAELVRPGASVKLSCTTSGFNIKDDYIHWVKQRPEQGLEWIGWIDPENGDTDYASKFQGKATITADTSSNTAYLHLSSLTSEDAAVYFCTTRGFGYWGQGTLVTVS
VL: DIVMTQSHKFMSTSVGDRVSITCKASQDVGNVVAWYQQKPGQSPKLLIYWASSRHTGVPDRFTGSGSGTEFTLTISNVQSEDLADYFCQQYSSYPLTFGAGTKLELK
notes: mouse hybridoma mAb; VH/VL only; also called 2601B6D2; ACI-7079-26016NAbM
B7: ACI-7089-4415G5-Ab1 (antibody, V domains shown)
VH: QVQLQQSGAELARPGASVKVSCKASGYTFTSSGISWLKHRTGQGLEWIGDIYPRSGNTYYNEKFKDKATLTADKSSSTAYMELRSLTSEDSAVYFCASGNYWGQGTTLTVSA
VL: DIVITQDDLSNPVTSGESVSISCRSSKSLLYKDGKTYLNWFLQRPGQSPQLLIYLMSTRASGVSDRFSGSGSGTDFTLEISRVKAEDVGVYYCQQLLEYPLTFGAGTKLELK
notes: mouse hybridoma mAb; VH/VL only; also called 4415G5A11
B8: ACI-7087-4125E6-Ab1 (antibody, V domains shown)
VH: QVQLQQPGTELVKPGASVRLSCKASGYAFTSYWMHWVKQRPGQGLEWIGNINPSNGGTNYNEKFKNKATLTVDKSSSTAYMQLSGLTSEDSAVYYCATGLHYWGQGTTLTVSS
VL: DIQMTQSPSSLSASLGERVTLTCRASQDIGNYLNWLQQEPDGTIKRLIYATSSLDSGVPKRFSGSRSGSDYSLTISSLESEDFVDYYCLQFASSPLTFGPGTKLELK
notes: mouse hybridoma mAb; VH/VL only; also called 4125E6D5
B9: ACI-7087-4119E10-Ab2 (antibody, V domains shown)
VH: QVQLQQSGAELVRPGASVTLSCKASGYTFSDYEMNWVKQTPVHGLEWIGAIDPETGGTAYNQKFKGKAILTSDKSSSTAYMELRSLTSEDSAVYYCTRFLLIDFDYWGQGTTLTVSS
VL: DVLMTQTPLSLPVSLGDQASISCRSSQSIVHSNGNTYLEWYLKKAGQSPKVLIYKVSNRFSGVPDRFSGSGSGTDFTLKISRVEAEDLGVYYCFQGSHVPYTFGGGTELEIK
notes: mouse hybridoma mAb; VH/VL only; also called 4119E10D12
B10: ACI-7079-3101E3-Ab1 (antibody, V domains shown)
VH: QVQLKESGPGLVAPSQSLSITCTVSGFSLTRYIINWVRQPPGKGLEWLGVIWTGGGTDYNSALKSRLSISKDNSKSQVFLKMNSLQTDDTARYYCAREYGYDGAWFAYWGQGTLVTVSA
VL: DVLMTQTPLSLPVSLGDQASISCRSSQTIVHSNGNTYLEWYLQKPGQSPKLLIYKVSNRFSGVPDRFSGSGSGTDFTLKISRVEAEDLGVYYCFQGSHVPYTFGGGTKLEIK
notes: mouse hybridoma mAb; VH/VL only; also called 3101E3C9
B11: ACI-7079-3103G12-Ab2 (antibody, V domains shown)
VH: DVQLQESGPGMVKPSQSLSLTCTVTGYSITSGYDWHWIRHFPGNKLEWMGYITYSGSTNYNPSLKSRISITHDTSKNHFFLKLTSVTTEDTATYYCARDTVDAWFAYWGQGTLVTVSA
VL: DVLMTQAPLSLPVSLGDQASISCRSSQSIVHSNGDTYLEWYLQKPGQSPKLLIYKVSNRFSGVPDRFSGSGSGTDFTLKISRVEAEDLGVYYCFQGSHVPPTFGGGTKLEIK
notes: mouse hybridoma mAb; VH/VL only; also called 3103G12D2B10
B12: ACI-8033-21C8-Ab1 (antibody, V domains shown)
VH: QVQLQQPGAELVKPGASVKMSCKASGYTFTSYWITWVRQRPGQGLDWIGDIYPGGGVTNYNEKFKTKATLTVDTSSSTAYMHLSSLTSEDSAVYFCATAQTTFAYWGQGTLVTVSA
VL: DVLMTQTPLSLPVSLGDQASISCRSSQNIVHNNGNTYLEWYLQKPGQSPKLLIYKVSNRFSGVPDRFSGSGSGTDFTLKISRVEAEDLGVYYCFQGSHVPRTFGGGTKLEIK
notes: mouse hybridoma mAb; VH/VL only; also called 917.21C8E4C8
B13: ACI-8033-22E5-Ab1 (antibody, V domains shown)
VH: EVQLVESGGDLVKPGGSLKLSCAASGFTFSSYGMSWVRQTPDKRLEWVATISNGGSYTYYPDSVKGRFTISRDNAKNTLYLQMSSLKSEDTAMYYCARQLRRDGWYFDVWGTGTTVTVSS
VL: EIVLTQSPALMAASPGEKVTITCSVSSSISSSKLHWYQQKSETSPKLWIYGTSNLASGVPVRFSGSGSGTSYSLTISSMEAEDAATYYCQQWSSYPLTFGAGTKLELK
notes: mouse hybridoma mAb; VH/VL only; also called 917.22E5C5F7
B14: ACI-7088-4301D5-Ab2 (antibody, V domains shown)
VH: QVQLQQSGPELVRPGASVKISCKASGYRFTSYYIHWVKQRPGQGLEWIGWIYPGSDNTKHNDKFKGKATLTADTSSSTAYMQLSSLTSEDSAVYFCARDYDVGFGYWGQGTLVTVSS
VL: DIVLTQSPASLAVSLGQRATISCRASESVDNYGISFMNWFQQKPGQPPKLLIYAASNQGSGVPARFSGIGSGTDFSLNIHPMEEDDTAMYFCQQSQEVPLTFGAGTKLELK
notes: mouse hybridoma mAb; VH/VL only; also called 4301D5B10
B15: ACI-7079-3103D9-Ab1 (antibody, V domains shown)
VH: QVSLKESGPGILQPSQTLSLTCSFSGFSLSTFGMGVGWIRQPSGKGLDWLTHIWWDDDKYYNPGLKSRLTISKDTSKNQVFLEIANVDTADTATYYCARIGDYYGTRGYFDVWGTGTTVTVSS
VL: DIVMTQSPSSLTMSLGQTVTMSCKSSQSLLNSSNQKNHLAWYQQRPGQSPKLLVYFASTRESGVPERFIGGGSGTDFTLTISNVQSEDLTDYFCQQHYSTPYTFGGGTKLEIK
notes: mouse hybridoma mAb; VH/VL only; also called 3103D9C9
B16: ACI-7079-3106C5-Ab1 (antibody, V domains shown)
VH: QVTLKESGPGILQPSQTLSLTCSFSGFSLSTFGMGVGWIRQPSGKGLEWLTHIWWDDDKYYNPALKSRLTISRDPSKNQVFLKIANVDTADTATYYCARIGDYYGSRGYFDVWGTGTTVTVSS
VL: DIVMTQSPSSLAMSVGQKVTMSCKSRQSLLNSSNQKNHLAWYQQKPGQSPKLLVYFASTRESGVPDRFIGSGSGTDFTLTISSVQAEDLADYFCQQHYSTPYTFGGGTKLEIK
notes: mouse hybridoma mAb; VH/VL only; also called 3106C5B7

Assays:
alpha-synuclein fibrils = alpha-synuclein fibrils (UniProt P37840 1-140); assay: SPR, captured mAb
Method: (§1) Non-covalent immobilization of alpha-synuclein antibodies was performed using a target immobilization method of 2000 response units (RU). Antibodies were diluted in 10 mM sodium acetate pH 5.5 (GE Healthcare, BR-1003-52) to a final concentration of 5 μg/mL.
(§2) Binding affinity of alpha-synuclein antibodies to monomeric or fibrillar alpha-synuclein species was performed using a single-cycle kinetics method. The instrument was primed with 1×HBS-P+ buffer (10× stock from GE Healthcare, BR-1003-52 diluted in Milli-Q water). Injections of monomeric alpha-synuclein (aSyn) (Boston Biochem, SP-485), increasing in concentration from 0.62-50 nM prepared from serial 2-fold dilutions, were performed with contact times of 300 sec/injection at a flow rate of 30 μL/min. A dissociation phase of 900 sec followed the final 50 nM injection. Regeneration of the sensor to the goat anti-mouse antibody layer was achieved using 3 regenerations of 10 mM Glycine pH 1.7. […] Regeneration of the sensor to the goat anti-mouse antibody layer was achieved using 3 regenerations of 10 mM Glycine pH 1.7. Results obtained from single-cycle kinetics were evaluated by Biacore T200 evaluation software with 1:1 binding homogenous Langmuir model (with a global Rmax) with Cycle 5 as a blank subtraction. The following kinetic parameters were obtained: on-rate (ka), off-rate (kd), affinity constant (KD, ratio of kd by ka), maximum response (Rmax), and goodness of fit (Chi2).
(§3) Non-covalent capture of the alpha-synuclein antibodies was performed in three separate runs.

[1] = molecular target: monomeric alpha-synuclein (UniProt P37840 1-140); assay: SPR, captured mAb
Method: as §1, §2, §3

Binder | Kd (alpha-synuclein fibrils) | koff (alpha-synuclein fibrils) | kon (alpha-synuclein fibrils) | Kd [1] | koff [1] | kon [1]
B1 | 39 nM | 0.000166 s⁻¹ | 4250 M⁻¹ s⁻¹ | 6 nM | 0.000118 s⁻¹ | 19800 M⁻¹ s⁻¹
B2 | 44.6 nM | 0.000273 s⁻¹ | 6110 M⁻¹ s⁻¹ | 3.9 nM | 0.000293 s⁻¹ | 75200 M⁻¹ s⁻¹
B3 | 37.4 nM | 0.000152 s⁻¹ | 4060 M⁻¹ s⁻¹ | 28.3 nM | 0.00058 s⁻¹ | 20500 M⁻¹ s⁻¹
B4 | 0.05 nM | 9.4e-06 s⁻¹ | 207000 M⁻¹ s⁻¹ | 3.1 nM | 0.000141 s⁻¹ | 45000 M⁻¹ s⁻¹
B5 | 6.77 nM | 6.66e-05 s⁻¹ | 9840 M⁻¹ s⁻¹ | – | – | –
B6 | 22 nM | 0.000382 s⁻¹ | 17400 M⁻¹ s⁻¹ | 82.1 nM | 0.0238 s⁻¹ | 290000 M⁻¹ s⁻¹
B7 | 1.3 nM | 0.00031 s⁻¹ | 242000 M⁻¹ s⁻¹ | 2.4 nM | 0.000141 s⁻¹ | 60000 M⁻¹ s⁻¹
B8 | 50.7 nM | 0.000567 s⁻¹ | 11200 M⁻¹ s⁻¹ | 442 nM | 0.0261 s⁻¹ | 59100 M⁻¹ s⁻¹
B9 | 16.2 nM | 0.00453 s⁻¹ | 280000 M⁻¹ s⁻¹ | 1040 nM | 0.0188 s⁻¹ | 18000 M⁻¹ s⁻¹
B10 | 13.7 nM | 0.000129 s⁻¹ | 9380 M⁻¹ s⁻¹ | 300 nM | 0.0569 s⁻¹ | 190000 M⁻¹ s⁻¹
B11 | 22.5 nM | 0.000563 s⁻¹ | 25000 M⁻¹ s⁻¹ | 2.4 nM | 0.0014 s⁻¹ | 580000 M⁻¹ s⁻¹
B12 | 17.7 nM | 0.000156 s⁻¹ | 8810 M⁻¹ s⁻¹ | 1.6 nM | 0.000482 s⁻¹ | 301000 M⁻¹ s⁻¹
B13 | 1.8 nM | 3.27e-05 s⁻¹ | 18000 M⁻¹ s⁻¹ | – | – | –
B14 | 35.8 nM | 0.000385 s⁻¹ | 10800 M⁻¹ s⁻¹ | 620 nM | 0.0353 s⁻¹ | 56900 M⁻¹ s⁻¹
B15 | 9.2 nM | 0.000413 s⁻¹ | 44800 M⁻¹ s⁻¹ | 0.73 nM | 0.000437 s⁻¹ | 598000 M⁻¹ s⁻¹
B16 | 9.49 nM | 0.000237 s⁻¹ | 25000 M⁻¹ s⁻¹ | 4.1 nM | 0.00325 s⁻¹ | 792000 M⁻¹ s⁻¹
